Substitutions are numbered along the chain they refer to.
How the values were obtained:
[1] = molecular target: T1, C5aR expressed on purified cynomolgus neutrophils (cynomolgus monkey (Macaca fascicularis)); experiment: FACS on purified cynomolgus neutrophils, IgG titration
T1 construct: Endogenous receptor on neutrophils from whole blood of three animals; also called cynomolgus C5aR expressed endogenously
T1 chain: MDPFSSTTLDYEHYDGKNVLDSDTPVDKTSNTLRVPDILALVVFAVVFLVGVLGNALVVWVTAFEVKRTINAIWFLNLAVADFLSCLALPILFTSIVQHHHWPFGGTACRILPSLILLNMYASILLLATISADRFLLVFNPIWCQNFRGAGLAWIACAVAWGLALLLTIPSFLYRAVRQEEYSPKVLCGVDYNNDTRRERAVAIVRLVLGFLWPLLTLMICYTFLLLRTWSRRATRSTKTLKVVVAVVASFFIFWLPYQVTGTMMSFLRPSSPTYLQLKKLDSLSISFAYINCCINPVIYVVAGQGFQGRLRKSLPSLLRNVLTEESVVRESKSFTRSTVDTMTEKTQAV
Procedure: Neutrophils were purified from EDTA-whole blood samples using a MACSexpress® Neutrophil Isolation Cocktail from Miltenyi Biotec. Briefly, using this kit, cells are isolated using magnetic labeling and negative magnetic separation. […] Measurements were done at the FACS Array device. FACS data were evaluated using FlowJo™, entered into GraphPad® Prism (v4.0) and fitted to the sigmoidal dose-response curve using non-linear regression to calculate the EC50.

[2] = molecular target: T2, human C5aR_NT-bio peptide (human, biotin tag (position not given)); experiment: SPR (Biacore T200), IgG captured on anti-human-Fc, peptide as analyte, 1:1 fit, monovalent
T2 construct: Chemically synthesized linear peptide (Genscript); also called human C5aR N-terminal peptide; human C5aR peptide
T2 peptide: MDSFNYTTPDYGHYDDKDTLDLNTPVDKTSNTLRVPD

[3] = molecular target: T3, cynomolgus C5aR_NT-bio peptide (cynomolgus monkey, biotin tag (position not given)); experiment: SPR (Biacore T200), IgG captured on anti-human-Fc, peptide as analyte, 1:1 fit, monovalent; value marked * (for ranking purposes; fast kon, fast koff)
T3 construct: Chemically synthesized linear peptide (Genscript); also called cynomolgus C5aR N-terminal peptide; cynomolgus C5aR peptide
T3 peptide: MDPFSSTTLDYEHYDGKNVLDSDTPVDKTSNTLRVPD

[4] = molecular target: T3, cynomolgus C5aR_NT-bio peptide; experiment: BLI (Octet HTX), biotinylated peptide on SA sensors, IgG as analyte, 1:1 fit, apparent (bivalent); fast koff
[5] = molecular target: T2, human C5aR_NT-bio peptide; experiment: Protein Panel Profiling (3P), MSD ECL, coated antigen, IgG 10 nM
Procedure: (§1) 32 different proteins and controls were coated on two 384-well MSD standard plates at a concentration of 1.0 μg/mL at 4° C. over night. The coating solution was discarded and plates were blocked with 50 μL 3% (w/v) BSA in PBS for one hour at RT on a microtiter plate shaker (˜500 rpm) followed by three washing steps with 50 μL washing buffer (PBS with 0.05% (v/v) Tween 20). IgG samples were diluted to 100 nM and 10 nM in assay buffer (PBS with 0.5% (w/v) BSA, 0.05% (v/v) Tween 20). As controls, isotype control antibody MOR03207 (IgG1f_AEASS) and assay buffer were used. Samples and controls were added at 30 μL/well and incubated for three hours at RT on a microtiter plate shaker. The plates were washed three times and 30 μL detection antibody (ECL-labeled anti-human Fab) were added per well and incubated for one hour on a microtiter plate shaker (˜500 rpm). After washing the MSD plate and adding 35 μL/well MSD Read Buffer T with surfactant, electro-chemiluminescence signals were detected using a SECTOR® Imager S600 instrument (Meso Scale Diagnostics).
(§2) For evaluation, binding signals of the antibody sample to a certain protein were divided by the respective binding signals of the reference antibody MOR03207 resulting in a binding ratio (BR). The cumulative binding ratio (CBR) of all proteins except the controls (25 in total) was then calculated: CBR up to 150 indicates an IgG without detectable unspecific binding. Values above 150 indicates an IgG with increased unspecific binding compared to the reference antibody MOR03207.

Trypsinogen = experiment: as above
Procedure: as §1, §2

Protein A = molecular target: T4, Protein A; experiment: as above
T4 construct: control of the 3P panel
Procedure: as §1, §2

RNase A = experiment: as above
Chain of RNase A (P61823 27-150): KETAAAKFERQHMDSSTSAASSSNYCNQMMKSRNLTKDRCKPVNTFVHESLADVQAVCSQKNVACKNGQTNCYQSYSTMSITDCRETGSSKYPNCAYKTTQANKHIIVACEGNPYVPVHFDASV
Procedure: as §1, §2

Lectin = experiment: as above
Procedure: as §1, §2

Trypsin inhibitor = experiment: as above
Procedure: as §1, §2

RNase B = experiment: as above
Chain of RNase B (P61823 27-150): as above
Procedure: as §1, §2

Pepsinogen = experiment: as above
Procedure: as §1, §2

bovine transferrin = bovine transferrin (bovine, UniProt Q29443 20-704); experiment: as above
Chain of bovine transferrin (Q29443 20-704 limits assumed): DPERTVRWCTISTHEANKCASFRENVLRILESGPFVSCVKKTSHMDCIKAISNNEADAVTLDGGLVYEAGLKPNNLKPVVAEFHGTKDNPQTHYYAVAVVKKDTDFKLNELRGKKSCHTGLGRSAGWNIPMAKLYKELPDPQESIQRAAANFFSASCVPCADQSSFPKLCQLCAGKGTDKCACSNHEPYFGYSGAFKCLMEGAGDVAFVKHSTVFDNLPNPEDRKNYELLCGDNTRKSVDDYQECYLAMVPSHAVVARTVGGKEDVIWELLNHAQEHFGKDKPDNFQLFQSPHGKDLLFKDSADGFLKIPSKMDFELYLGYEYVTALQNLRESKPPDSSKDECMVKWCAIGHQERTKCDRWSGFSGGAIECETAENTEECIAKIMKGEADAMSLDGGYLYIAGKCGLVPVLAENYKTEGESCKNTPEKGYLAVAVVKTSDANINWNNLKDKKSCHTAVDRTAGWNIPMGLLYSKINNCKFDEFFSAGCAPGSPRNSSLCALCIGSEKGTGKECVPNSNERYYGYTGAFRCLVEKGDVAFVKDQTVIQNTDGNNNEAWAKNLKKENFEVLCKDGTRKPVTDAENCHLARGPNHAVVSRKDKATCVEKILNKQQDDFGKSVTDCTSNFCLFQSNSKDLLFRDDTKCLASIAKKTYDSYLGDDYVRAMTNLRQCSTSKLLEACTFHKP
Procedure: as §1, §2

[6] = molecular target: T5, Cell surface rec. 3_Fc (h); experiment: as above
T5 construct: identity not disclosed
Procedure: as §1, §2

[7] = molecular target: T6, Cell surface rec. 2_Fc (h); experiment: as above
T6 construct: identity not disclosed
Procedure: as §1, §2

anti-human Fab (Dianova) = molecular target: T7, anti-human Fab (Dianova); experiment: as above
T7 construct: control of the 3P panel; it captures human IgG as such, so a ratio of 1 means a signal equal to that of MOR03207
Procedure: as §1, §2

anti-human Fc = molecular target: T8, anti-human Fc; experiment: as above
T8 construct: control of the 3P panel; it captures human IgG as such, so a ratio of 1 means a signal equal to that of MOR03207
Procedure: as §1, §2

GFP = experiment: as above
Procedure: as §1, §2

[8] = molecular target: T9, Cell surface rec. 1_Lys (h); experiment: as above
T9 construct: identity not disclosed
Procedure: as §1, §2

Serum albumin (h) = molecular target: T10, Serum albumin (h) (human); experiment: as above
T10 construct: '(h)' on the sheet read as human
T10 sequence (P02768 25-609): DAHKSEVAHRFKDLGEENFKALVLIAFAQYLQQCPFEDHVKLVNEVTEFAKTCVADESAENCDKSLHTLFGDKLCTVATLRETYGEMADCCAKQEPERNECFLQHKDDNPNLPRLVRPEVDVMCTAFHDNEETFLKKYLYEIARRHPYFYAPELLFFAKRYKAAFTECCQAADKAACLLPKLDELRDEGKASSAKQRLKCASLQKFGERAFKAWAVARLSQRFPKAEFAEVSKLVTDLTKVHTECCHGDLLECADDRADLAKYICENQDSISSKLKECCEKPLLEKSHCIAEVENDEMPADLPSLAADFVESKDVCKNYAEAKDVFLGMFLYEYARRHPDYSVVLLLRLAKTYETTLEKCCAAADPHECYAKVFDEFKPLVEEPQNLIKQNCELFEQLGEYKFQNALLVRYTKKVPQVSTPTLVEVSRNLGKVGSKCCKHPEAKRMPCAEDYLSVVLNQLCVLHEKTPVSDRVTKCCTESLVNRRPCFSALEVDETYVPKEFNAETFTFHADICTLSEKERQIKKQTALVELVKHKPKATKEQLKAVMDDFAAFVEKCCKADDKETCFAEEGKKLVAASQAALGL
Procedure: as §1, §2

Cytochrome C = experiment: as above
Procedure: as §1, §2

Fc (h) = molecular target: T11, Fc (h); experiment: as above
T11 construct: '(h)' on the sheet read as human
Procedure: as §1, §2

Antitrypsin = experiment: as above
Procedure: as §1, §2

Hemoglobin (h) = molecular target: T12, Hemoglobin (h) (human); experiment: as above
T12 construct: '(h)' on the sheet read as human
T12 sequence (P69905 2-142, chain 1 of 2): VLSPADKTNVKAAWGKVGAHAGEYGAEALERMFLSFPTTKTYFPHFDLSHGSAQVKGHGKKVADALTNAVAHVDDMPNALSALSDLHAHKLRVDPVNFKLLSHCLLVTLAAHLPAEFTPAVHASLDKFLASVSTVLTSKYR
T12 sequence (P68871 2-147, chain 2 of 2, further chain): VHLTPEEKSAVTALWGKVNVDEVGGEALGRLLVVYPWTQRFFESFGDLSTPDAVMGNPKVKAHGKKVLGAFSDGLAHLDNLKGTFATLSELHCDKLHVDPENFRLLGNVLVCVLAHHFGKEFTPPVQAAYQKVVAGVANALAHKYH
Procedure: as §1, §2

cynomolgus transferrin = cynomolgus transferrin (cynomolgus, UniProt A0A2K5UXZ0 20-695); experiment: Octet based binding assay
rat transferrin = rat transferrin (rat, UniProt P12346 20-698); experiment: Octet based binding assay
Chain of rat transferrin (P12346 20-698 limits assumed): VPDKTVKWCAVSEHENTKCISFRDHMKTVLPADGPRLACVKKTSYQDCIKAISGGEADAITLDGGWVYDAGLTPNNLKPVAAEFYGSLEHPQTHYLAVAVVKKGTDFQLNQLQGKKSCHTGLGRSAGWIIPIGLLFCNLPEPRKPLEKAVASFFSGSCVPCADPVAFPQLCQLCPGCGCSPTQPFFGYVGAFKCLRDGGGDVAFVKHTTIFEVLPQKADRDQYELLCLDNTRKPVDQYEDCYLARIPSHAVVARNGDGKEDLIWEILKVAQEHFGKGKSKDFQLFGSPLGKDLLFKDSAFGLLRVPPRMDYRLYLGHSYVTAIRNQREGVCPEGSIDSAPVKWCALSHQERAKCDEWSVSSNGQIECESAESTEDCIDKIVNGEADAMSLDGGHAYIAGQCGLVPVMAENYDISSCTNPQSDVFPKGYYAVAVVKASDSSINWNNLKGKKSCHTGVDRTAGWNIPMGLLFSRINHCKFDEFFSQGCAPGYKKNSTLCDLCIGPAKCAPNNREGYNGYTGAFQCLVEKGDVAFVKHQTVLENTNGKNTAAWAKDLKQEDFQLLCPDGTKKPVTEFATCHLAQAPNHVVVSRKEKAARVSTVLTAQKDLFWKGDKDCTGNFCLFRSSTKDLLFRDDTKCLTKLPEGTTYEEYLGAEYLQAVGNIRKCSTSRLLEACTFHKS

B1: MAB #2 (antibody, human IgG1, lambda)
heavy: EVQLVESGGGLVKPGGSLRLSCAASGFTFSSYAMHWVRQAPGKGLEWVGRIKSVAQGGTTDYAAHVKGRFTISRDDSKNTLYLQMNSLKTEDTAVYYCARVSHSTFDVWGQGTLVTVSSASTKGPSVFPLAPSSKSTSGGTAALGCLVKDYFPEPVTVSWNSGALTSGVHTFPAVLQSSGLYSLSSVVTVPSSSLGTQTYICNVNHKPSNTKVDKRVEPKSCDKTHTCPPCPAPEAEGAPSVFLFPPKPKDTLMISRTPEVTCVVVDVSHEDPEVKFNWYVDGVEVHNAKTKPREEQYNSTYRVVSVLTVLHQDWLNGKEYKCKVSNKALPSSIEKTISKAKGQPREPQVYTLPPSREEMTKNQVSLTCLVKGFYPSDIAVEWESNGQPENNYKTTPPVLDSDGSFFLYSKLTVDKSRWQQGNVFSCSVMHEALHNHYTQKSLSLSPGK
light: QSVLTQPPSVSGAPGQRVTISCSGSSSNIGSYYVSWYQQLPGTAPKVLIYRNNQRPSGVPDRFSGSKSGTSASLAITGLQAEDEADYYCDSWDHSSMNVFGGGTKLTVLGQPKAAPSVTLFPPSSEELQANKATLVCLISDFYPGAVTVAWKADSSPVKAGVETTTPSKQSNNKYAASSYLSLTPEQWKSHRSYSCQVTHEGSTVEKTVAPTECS
notes: lambda 1 light chain
- EC50 [1]: 3.8 nM
- Kd [2]: 29 nM
- koff [2]: 0.00127 s⁻¹
- kon [2]: 43300 M⁻¹ s⁻¹
- Kd [3]: 34000 nM
- koff [3]: 0.145 s⁻¹
- kon [3]: 4290 M⁻¹ s⁻¹
- Kd [4]: 140 nM
- koff [4]: 0.0189 s⁻¹
- kon [4]: 138000 M⁻¹ s⁻¹
- binding ratio (signal / signal of MOR03207) [5]: 46
- binding ratio (signal / signal of MOR03207) (Trypsinogen): 1
- binding ratio (signal / signal of MOR03207) (Protein A): 1
- binding ratio (signal / signal of MOR03207) (RNase A): 2
- binding ratio (signal / signal of MOR03207) (Lectin): 1
- binding ratio (signal / signal of MOR03207) (Trypsin inhibitor): 3
- binding ratio (signal / signal of MOR03207) (RNase B): 1
- binding ratio (signal / signal of MOR03207) (Pepsinogen): 1
- binding ratio (signal / signal of MOR03207) (bovine transferrin): 4
- binding ratio (signal / signal of MOR03207) [6]: 2
- binding ratio (signal / signal of MOR03207) [7]: 1
- binding ratio (signal / signal of MOR03207) (anti-human Fab (Dianova)): 1
- binding ratio (signal / signal of MOR03207) (anti-human Fc): 1
- binding ratio (signal / signal of MOR03207) (GFP): 1
- binding ratio (signal / signal of MOR03207) [8]: 1
- binding ratio (signal / signal of MOR03207) (Serum albumin (h)): 1
- binding ratio (signal / signal of MOR03207) (Cytochrome C): 1
- binding ratio (signal / signal of MOR03207) (Fc (h)): 1
- binding ratio (signal / signal of MOR03207) (Antitrypsin): 2
- binding ratio (signal / signal of MOR03207) (Hemoglobin (h)): 1
- binding result (cynomolgus transferrin): no binding
- binding result (rat transferrin): no binding

B2: MAB #1 (antibody, human IgG1, lambda)
heavy: B1 heavy with V54K, H103F
light: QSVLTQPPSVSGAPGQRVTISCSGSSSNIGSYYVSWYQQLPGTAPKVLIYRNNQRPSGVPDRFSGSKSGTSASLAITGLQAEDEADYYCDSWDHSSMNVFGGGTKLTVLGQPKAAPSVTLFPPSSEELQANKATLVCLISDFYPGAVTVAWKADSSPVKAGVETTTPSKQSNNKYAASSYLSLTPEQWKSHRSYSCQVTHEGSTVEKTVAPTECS
notes: lambda 1 light chain, VH3-15 framework
- EC50 [1]: 4.5 nM
- Kd [2]: 36 nM
- koff [2]: 0.00179 s⁻¹
- kon [2]: 50100 M⁻¹ s⁻¹
- Kd [3]: 8200 nM
- koff [3]: 0.111 s⁻¹
- kon [3]: 13600 M⁻¹ s⁻¹
- Kd [4]: 63 nM
- koff [4]: 0.0108 s⁻¹
- kon [4]: 171000 M⁻¹ s⁻¹
- binding ratio (signal / signal of MOR03207) [5]: 82
- binding ratio (signal / signal of MOR03207) (Trypsinogen): 1
- binding ratio (signal / signal of MOR03207) (Protein A): 1
- binding ratio (signal / signal of MOR03207) (RNase A): 2
- binding ratio (signal / signal of MOR03207) (Lectin): 1
- binding ratio (signal / signal of MOR03207) (Trypsin inhibitor): 2
- binding ratio (signal / signal of MOR03207) (RNase B): 1
- binding ratio (signal / signal of MOR03207) (Pepsinogen): 1
- binding ratio (signal / signal of MOR03207) (bovine transferrin): 8
- binding ratio (signal / signal of MOR03207) [6]: 2
- binding ratio (signal / signal of MOR03207) [7]: 1
- binding ratio (signal / signal of MOR03207) (anti-human Fab (Dianova)): 1
- binding ratio (signal / signal of MOR03207) (anti-human Fc): 1
- binding ratio (signal / signal of MOR03207) (GFP): 1
- binding ratio (signal / signal of MOR03207) [8]: 1
- binding ratio (signal / signal of MOR03207) (Serum albumin (h)): 2
- binding ratio (signal / signal of MOR03207) (Cytochrome C): 1
- binding ratio (signal / signal of MOR03207) (Fc (h)): 1
- binding ratio (signal / signal of MOR03207) (Antitrypsin): 1
- binding ratio (signal / signal of MOR03207) (Hemoglobin (h)): 1
- binding result (cynomolgus transferrin): no binding
- binding result (rat transferrin): no binding

Source: patent US20240400657A1 (MorphoSys, published 2024)
